Measured values as given in paper PMC3127848, “Decreased expression of BRCA1 in SK-BR-3 cells is the result of aberrant activation of the GABP Beta promoter by an NRF-1-containing complex”.

Molecular target: T1, recombinant NRF-1 (rNRF-1) (human, UniProt Q16656 1-503)
T1 sequence: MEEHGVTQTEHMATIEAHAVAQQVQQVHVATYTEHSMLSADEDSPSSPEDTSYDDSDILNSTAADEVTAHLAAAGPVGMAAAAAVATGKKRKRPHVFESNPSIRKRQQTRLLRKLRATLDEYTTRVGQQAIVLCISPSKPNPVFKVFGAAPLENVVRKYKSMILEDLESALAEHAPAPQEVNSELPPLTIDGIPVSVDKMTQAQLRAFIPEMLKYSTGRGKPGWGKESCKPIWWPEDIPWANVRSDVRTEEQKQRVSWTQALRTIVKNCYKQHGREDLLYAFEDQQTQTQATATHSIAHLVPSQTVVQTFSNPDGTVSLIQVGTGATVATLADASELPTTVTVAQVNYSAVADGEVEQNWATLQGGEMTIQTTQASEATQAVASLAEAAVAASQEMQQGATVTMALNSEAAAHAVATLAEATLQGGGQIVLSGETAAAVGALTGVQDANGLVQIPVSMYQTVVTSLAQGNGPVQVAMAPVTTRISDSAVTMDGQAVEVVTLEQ
Experiment: EMSA; 0.03-5 ug protein, concentration-dependent; 25 mM HEPES pH 7.6, 5 mM MgCl2, 34 mM KCl, 50 ug/mL poly dI:dC, 0.5 mg/mL BSA, on ice 15 min; 6% acrylamide 0.25x TBE gel
Conditions: tags: N-terminal MBP fusion (pMAL-c2), chain copies: 2, label: 32P

B1: Gb-270 (dsDNA)
DNA 1: CTGCCGCGCAGGCGCCGGGC
DNA 2: GCCCGGCGCCTGCGCGGCAG
binding result: binds
